Data reported in patent US20170112792A1, “ENHANCED ATRA-RELATED COMPOUNDS DERIVED FROM STRUCTURE-ACTIVITY RELATIONSHIPS AND MODELING FOR INHIBITING PIN1” (Beth Israel Deaconess Medical Center, Inc., priority 2014, published 2017).

Biological target: pSer110 peptide (IRAKM residues 103-124 with Ser110 phosphorylated)
Test: NMR titration, 1H-15N HSQC chemical shift changes

Sequence of pSer110 peptide (IRAKM residues 103-124 with Ser110 phosphorylated) (peptide, as listed by the source limits assumed): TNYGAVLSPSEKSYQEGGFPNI

- Kd: 60.7 µM
Substance: 15N-labeled Pin1 WW domain (Pin1 residues 1-50) (from UniProt Q13526 1-50)
